The supplement of paper PMC5998384

Columns and labels:
HeLa Kyoto [1] = test: solubility in G1/S (NP-40 vs SDS abundance) (log2 ratio); higher = more soluble; conditions: cell cycle stage: G1/S
HeLa Kyoto [2] = test: solubility change mitosis vs G1/S (difference of NP-40 vs SDS log2 ratios) (log2 ratio difference); higher = more soluble in mitosis
HeLa Kyoto [3] = test: melting temperature (median over replicates), in situ; higher = more thermally stable
HeLa Kyoto [4] = test: thermal stability score vs G1/S (z-score of summed log2 fold changes over temperatures); higher = more thermally stable than in G1/S
[5] = cell cycle stage: early G1 (4.5 h after nocodazole release)
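Throughout, for melting temperature (median over replicates), in situ: HeLa Kyoto cells synchronized by double thymidine or nocodazole block, proteins quantified by TMT10plex mass spectrometry, three independent biological replicates.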
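Throughout, for solubility change mitosis vs G1/S (difference of NP-40 vs SDS log2 ratios): synchronized HeLa Kyoto cells (double thymidine block for G1/S, nocodazole release for mitosis), protein amounts in NP-40 versus SDS lysates quantified by mass spectrometry, three biological replicates.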
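Throughout, for solubility in G1/S (NP-40 vs SDS abundance): HeLa Kyoto cells arrested at G1/S by double thymidine block, proteins quantified by TMT10plex mass spectrometry in mild NP-40 versus SDS extracts, three biological replicates.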
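Throughout, for thermal stability score vs G1/S (z-score of summed log2 fold changes over temperatures): synchronized HeLa Kyoto cells, proteins quantified by TMT10plex mass spectrometry, three biological replicates, mitosis taken 0.5 h after nocodazole release, G1/S directly after double thymidine block.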

| Substance | solubility in G1/S (log2) (HeLa Kyoto [1]) | solubility change mitosis (log2) (HeLa Kyoto [2]) | melting temperature (HeLa Kyoto [3]; cell cycle stage: G1/S) | melting temperature (HeLa Kyoto [3]; cell cycle stage: mitosis) | thermal stability score (HeLa Kyoto [4]; [5]) | thermal stability score (HeLa Kyoto [4]; cell cycle stage: mitosis) |
| --- | --- | --- | --- | --- | --- | --- |
| MEEGHGLDLTYITERIIAVSFPAGCSEESYLHNLQEVTRMLKSKHGDNYLVLNLSEKRYDLTKLNPKIMDVGWPELHAPPLDKMCTICKAQESWLNSNLQHVVVIHCRGGKGRIGVVISSYMHFTNVSASADQALDRFAMKKFYDDKVSALMQPSQKRYVQFLSGLLSGSVKMNASPLFLHFVILHGTPNFDTGGVCRPFLKLYQAMQPVYTSGIYNVGPENPSRICIVIEPAQLLKGDVMVKCYHKKYRSATRDVIFRLQFHTGAVQGYGLVFGKEDLDNASKDDRFPDYGKVELVFSATPEKIQGSEHLYNDHGVIVDYNTTDPLIRWDSYENLSADGEVLHTQGPVDGSLYAKVRKKSSSDPGIPGGPQAIPATNSPDHSDHTLSVSSDSGHSTASARTDKTEERLAPGTRRGLSAQEKAELDQLLSGFGLEDPGSSLKEMTDARSKYSGTRHVVPAQVHVNGDAALKDRETDILDDEMPHHDLHSVDSLGTLSSSEGPQSAHLGPFTCHKSSQNSLLSDGFGSNVGEDPQGTLVPDLGLGMDGPYERERTFGSREPKQPQPLLRKPSVSAQMQAYGQSSYSTQTWVRQQQMVVAHQYSFAPDGEARLVSRCPADNPGLVQAQPRVPLTPTRGTSSRVAVQRGVGSGPHPPDTQQPSPSKAFKPRFPGDQVVNGAGPELSTGPSPGSPTLDIDQSIEQLNRLILELDPTFEPIPTHMNALGSQANGSVSPDSVGGGLRASSRLPDTGEGPSRATGRQGSSAEQPLGGRLRKLSLGQYDNDAGGQLPFSKCAWGKAGVDYAPNLPPFPSPADVKETMTPGYPQDLDIIDGRILSSKESMCSTPAFPVSPETPYVKTALRHPPFSPPEPPLSSPASQHKGGREPRSCPETLTHAVGMSESPIGPKSTMLRADASSTPSFQQAFASSCTISSNGPGQRRESSSSAERQWVESSPKPMVSLLGSGRPTGSPLSAEFSGTRKDSPVLSCFPPSELQAPFHSHELSLAEPPDSLAPPSSQAFLGFGTAPVGSGLPPEEDLGALLANSHGASPTPSIPLTATGAADNGFLSHNFLTVAPGHSSHHSPGLQGQGVTLPGQPPLPEKKRASEGDRSLGSVSPSSSGFSSPHSGSTISIPFPNVLPDFSKASEAASPLPDSPGDKLVIVKFVQDTSKFWYKADISREQAIAMLKDKEPGSFIVRDSHSFRGAYGLAMKVATPPPSVLQLNKKAGDLANELVRHFLIECTPKGVRLKGCSNEPYFGSLTALVCQHSITPLALPCKLLIPERDPLEEIAESSPQTAANSAAELLKQGAACNVWYLNSVEMESLTGHQAIQKALSITLVQEPPPVSTVVHFKVSAQGITLTDNQRKLFFRRHYPVNSVIFCALDPQDRKWIKDGPSSKVFGFVARKQGSATDNVCHLFAEHDPEQPASAIVNFVSKVMIGSPKKV [TNS3] | 0.127 | -0.126 | 48 °C | 49.8 °C | 1.68 | 3.85 |
| METILEQQRRYHEEKERLMDVMAKEMLTKKSTLRDQINSDHRTRAMQDRYMEVSGNLRDLYDDKDGLRKEELNAISGPNEFAEFYNRLKQIKEFHRKHPNEICVPMSVEFEELLKARENPSEEAQNLVEFTDEEGYGRYLDLHDCYLKYINLKASEKLDYITYLSIFDQLFDIPKERKNAEYKRYLEMLLEYLQDYTDRVKPLQDQNELFGKIQAEFEKKWENGTFPGWPKETSSALTHAGAHLDLSAFSSWEELASLGLDRLKSALLALGLKCGGTLEERAQRLFSTKGKSLESLDTSLFAKNPKSKGTKRDTERNKDIAFLEAQIYEYVEILGEQRHLTHENVQRKQARTGEEREEEEEEQISESESEDEENEIIYNPKNLPLGWDGKPIPYWLYKLHGLNINYNCEICGNYTYRGPKAFQRHFAEWRHAHGMRCLGIPNTAHFANVTQIEDAVSLWAKLKLQKASERWQPDTEEEYEDSSGNVVNKKTYEDLKRQGLL [SF3A3] | 0.132 | 0.129 | 49.8 °C | 48.1 °C | 0.0461 | 0.769 |
| MTPPPPPPPPPGPDPAADPAADPCPWPGSLVVLFGATAGALGRDLGSDETDLILLVWQVVEPRSRQVGTLHKSLVRAEAAALSTQCREASGLSADSLARAEPLDKVLQQFSQLVNGDVALLGGGPYMLCTDGQQLLRQVLHPEASRKNLVLPDMFFSFYDLRREFHMQHPSTCPARDLTVATMAQGLGLETDATEDDFGVWEVKTMVAVILHLLKEPSSQLFSKPEVIKQKYETGPCSDSTVPCPYSSKADVVDSETVVRARGLPWQSSDQDVARFFKGLNVARGGVALCLNAQGRRNGEALIRFVDSEQRDLALQRHKHHMGVRYIEVYKATGEEFVKIAGGTSLEVARFLSREDQVILRLRGLPFSAGPTDVLGFLGPECPVTGGTEGLLFVRHPDGRPTGDAFALFACEELAQAALRRHKGMLGKRYIELFRSTAAEVQQVLNRYASGPLLPTLTAPLLPIPFPLAPGTGRDCVRLRGLPYTATIEDILSFLGEAAADIRPHGVHMVLNQQGRPSGDAFIQMTSAERALAAAQRCHKKVMKERYVEVVPCSTEEMSRVLMGGTLGRSGMSPPPCKLPCLSPPTYTTFQATPTLIPTETAALYPSSALLPAARVPAAPTPVAYYPGPATQLYLNYTAYYPSPPVSPTTVGYLTTPTAALASAPTSVLSQSGALVRMQGVPYTAGMKDLLSVFQAYQLPADDYTSLMPVGDPPRTVLQAPKEWVCL [ESRP2] | 0.0652 | 0.0705 | 45.2 °C | 47.7 °C | 1.55 | 2.39 |
| MAQTVQNVTLSLTLPITCHICLGKVRQPVICINNHVFCSICIDLWLKNNSQCPACRVPITPENPCKEIIGGTSESEPMLSHTVRKHLRKTRLELLHKEYEDEIDCLQKEVEELKSKNLSLESQIKTILDPLTLVQGNQNEDKHLVTDNPSKINPETVAEWKKKLRTANEIYEKVKDDVDKLKEANKKLKLENGGLVRENLRLKAEVDNRSPQKFGRFAVAALQSKVEQYERETNRLKKALERSDKYIEELESQVAQLKNSSEEKEAMNSICQTALSADGKGSKGSEEDVVSKNQGDSARKQPGSSTSSSSHLAKPSSSRLCDTSSARQESTSKADLNCSKNKDLYQEQVEVMLDVTDTSMDTYLEREWGNKPSDCVPYKDEELYDLPAPCTPLSLSCLQLSTPENRESSVVQAGGSKKHSNHLRKLVFDDFCDSSNVSNKDSSEDDISRSENEKKSECFSSPKTGFWDCCSTSYAQNLDFESSEGNTIANSVGEISSKLSEKSGLCLSKRLNSIRSFEMNRTRTSSEASMDAAYLDKISELDSMMSESDNSKSPCNNGFKSLDLDGLSKSSQGSEFLEEPDKLEEKTELNLSKGSLTNDQLENGSEWKPTSFFLLSPSDQEMNEDFSLHSSSCPVTNEIKPPSCLFQTEFSQGILLSSSHRLFEDQRFGSSLFKMSSEMHSLHNHLQSPWSTSFVPEKRNKNVNQSTKRKIQSSLSSASPSKATKS [RNF219] | -0.0524 | -0.0524 | 46.5 °C | 49.3 °C | 0.213 | 2.43 |
| MGPRKKSVKTCIMNNEIPEEMTADETKDYMNQLSHEVLCHIFRYLPLQDIMCMECLSRKLKEAVTLYLRVVRVVDLCAGRWWEYMPSGFTDASFLTLLKKMPDVEQLYGLHPRYLERRRVRGHEAFSIPGVLEALQACPNLVGVETSHLELVESIWTYMPHVHILGKFRNRNGAFPIPPENKLKIPIGAKIQTLHLVGVNVPEIPCIPMLRHLYMKWVRLTKPQPFKDFLCISLRTFVMRNCAGPTNSLKYVPLVTGLASARNLEHLEMVRVPFLGGLIQHVVEDSWRSGGFRNLHTIVLGACKNALEVDLGYLIITAARRLHEVRIQPSLTKDGVFSALKMAELEFPQFETLHLGYVDEFLLQSRMANADLVKYGLADVVENPGIITDIGMKAVNEVFSCIKYLAIYNCPHLHNPYNWISDHSRWTRLVDINLVRCHALKLDSFGQFIELLPSLEFISLDQMFREPPKGCARVGLSAGTGIGVSSALVSNQNSNNDDNNAQNNNANIHDNNHHHPDDSDEENDFRQDLQPGEQQFAADALNEMEDIVQEDGEVVAESGNNTPAHSQAIIPVDVDEEQAGPSGLQRVVKPTSITVHDSESDDEEDSLELQEVWIPKNGTRRYSEREEKTGESVQSRELSVSGKGKTPLRKRYNSHQMGQSKQFPLEESSCEKGCQVTSEQIKADMKAARDIPEKKKNKDVYPSCSSTTASTVGNSSSHNTASQSPDFVRTVNSGGSSEPSPTEVDVSRQCACSPGGSEDSEAMEEGDAESSVCPRCCCHRPQESQRRTSRCSDEERPSTSRACVVNGPDGTRSAFSFRTLPQGGSSGPAHDERTNGSGSGATGEDRRGSSQPESCDVQSNEDYPRRPLTRARSRLSHVLLVSESEVAKTKPRHAMKRKRTADKSTSTSDPVIEDDHVQVLVLKSKNLVGVTMTNCGITDLVLKDCPKMMFIHATRCRVLKHLKVENAPIVNRFDYAQCKKLNMDQVLDQILRMPPERNRIIYLRPMQQVDTLTLEQKLFSGPYPYHICIIHEFSNPPNVRNKVRIRSWMDTIANINQELIKYEFFPEATRSEEDLKKYPKYPWGREIYTLEGVVDGAPYSMISDFPWLRSLRAAEPNSFARYDFEDDEESTIYAPRRKGQLSADICMETIGEEISEMRQMKKGVFQRVVAIFIHYCDVNGEPVEDDYI [FBXO38] | -0.338 | -0.0833 | 51.6 °C | 51.3 °C | -0.768 | -0.745 |
| MLRACQLSGVTAAAQSCLCGKFVLRPLRPCRRYSTSGSSGLTTGKIAGAGLLFVGGGIGGTILYAKWDSHFRESVEKTIPYSDKLFEMVLGPAAYNVPLPKKSIQSGPLKISSVSEVMKESKQPASQLQKQKGDTPASATAPTEAAQIISAAGDTLSVPAPAVQPEESLKTDHPEIGEGKPTPALSEEASSSSIRERPPEEVAARLAQQEKQEQVKIESLAKSLEDALRQTASVTLQAIAAQNAAVQAVNAHSNILKAAMDNSEIAGEKKSAQWRTVEGALKERRKAVDEAADALLKAKEELEKMKSVIENAKKKEVAGAKPHITAAEGKLHNMIVDLDNVVKKVQAAQSEAKVVSQYHELVVQARDDFKRELDSITPEVLPGWKGMSVSDLADKLSTDDLNSLIAHAHRRIDQLNRELAEQKATEKQHITLALEKQKLEEKRAFDSAVAKALEHHRSEIQAEQDRKIEEVRDAMENEMRTQLRRQAAAHTDHLRDVLRVQEQELKSEFEQNLSEKLSEQELQFRRLSQEQVDNFTLDINTAYARLRGIEQAVQSHAVAEEEARKAHQLWLSVEALKYSMKTSSAETPTIPLGSAVEAIKANCSDNEFTQALTAAIPPESLTRGVYSEETLRARFYAVQKLARRVAMIDETRNSLYQYFLSYLQSLLLFPPQQLKPPPELCPEDINTFKLLSYASYCIEHGDLELAAKFVNQLKGESRRVAQDWLKEARMTLETKQIVEILTAYASAVGIGTTQVQPE [IMMT] | 0.38 | 0.0268 | 53.2 °C | 52 °C | 0.171 | -1.21 |
| KPNA6 | 0.0416 | -0.0516 | 47.6 °C | 48.8 °C | 1.85 | 4.59 |
| MTSRSTARPNGQPQASKICQFKLVLLGESAVGKSSLVLRFVKGQFHEYQESTIGAAFLTQSVCLDDTTVKFEIWDTAGQERYHSLAPMYYRGAQAAIVVYDITNQETFARAKTWVKELQRQASPSIVIALAGNKADLANKRMVEYEEAQAYADDNSLLFMETSAKTAMNVNDLFLAIAKKLPKSEPQNLGGAAGRSRGVDLHEQSQQNKSQCCSN [RAB5B] | 0.23 | -0.207 | 57.4 °C | 58.2 °C | -0.307 | -2.64 |
